Measured values reported in the supplement of paper PMC11780869.

Tested on: Bacillus subtilis
Experiment: cleaved RNA product abundance (RNA/gDNA barcode ratio) relative to median wild-type variant (ratio to wild type); higher = more accumulation of the downstream cleavage product
Conditions: cleavage site: cggR-gapA (positions -7 to +36 mutated)
How it was run: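 Reporter mRNAs (truncated aprE or tetM) carrying barcoded, mutagenized RNase Y cleavage-site windows were made from oligos with a 9% error rate and integrated into the B. subtilis chromosome. Cultures grew in LB at 37°C from OD600 0.0003 to 0.3. Cleaved RNA was gel-selected, reverse transcribed and barcode-sequenced alongside genomic DNA barcodes, with UMI collapsing. Cleaved product abundance is the RNA:gDNA barcode ratio per variant, scaled to the median wild-type variant.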

[1] = experiment (reporter, strain, medium): exp 2b: truncated aprE reporter, strain BJT200
[2] = experiment (reporter, strain, medium): exp 4a: truncated aprE reporter, strain BJT201 with 2% xylose (RNase J1 expressed)
[3] = experiment (reporter, strain, medium): exp 6: tetM reporter, strain 168

ACAGACGAAGGAGCCGCAAAGAAGTTACTAAGGGATGAATAATCCCTCAATATAAATATCTCTCACTTATTTAAA
cleaved RNA product abundance [1]: 0.219
cleaved RNA product abundance [2]: 0.314
cleaved RNA product abundance [3]: 0.275

ACAGACGAAGGAGCCGCAAAGAAGTTACTAAGGGATGAATAATCCCTCAATATATATATCTCTCACTTATTTAAA
cleaved RNA product abundance [2]: 0.346

ACAGACGAAGGAGCCGCAAAGAAGTTACTAAGGGATGAATAATCCCTCATTATAAATATCTCTCACTTATTTAAA
cleaved RNA product abundance [1]: 0.218
cleaved RNA product abundance [2]: 0.342

ACAGACGAAGGAGCCGCAAAGAAGTTACTAAGGGATGAATAATCCCTCGATATAAATATCTCTCACTTATTTAAA
cleaved RNA product abundance [2]: 0.227

ACAGACGAAGGAGCCGCAAAGAAGTTACTAAGGGATGAATAATCGCTCAATATAAATATCTCTCACTTATTTAAA
cleaved RNA product abundance [1]: 0.0765
cleaved RNA product abundance [2]: 0.0864

ACAGACGAAGGAGCCGCAAAGAAGTTACTAAGGGATGAATAATCTCTCAATATAAATATCTCTCACTTATTTAAA
cleaved RNA product abundance [1]: 0.149
cleaved RNA product abundance [2]: 0.22

ACAGACGAAGGAGCCGCAAAGAAGTTACTAAGGGATGAATAATTCCTCAATATAAATATCTCTCACTTATTTAAA
cleaved RNA product abundance [2]: 0.24

ACAGACGAAGGAGCCGCAAAGAAGTTACTAAGGGATGAATACTCCCTCAATATAAATATCTCTCACTTATTTAAA
cleaved RNA product abundance [1]: 0.107

ACAGACGAAGGAGCCGCAAAGAAGTTACTAAGGGATGAATTATCCCTCAATATAAATATCTCTCACTTATTTAAA
cleaved RNA product abundance [1]: 0.199
cleaved RNA product abundance [2]: 0.25

ACAGACGAAGGAGCCGCAAAGAAGTTACTAAGGGATGATTAATCCCTCAATATAAATATCTCTCACTTATTTAAA
cleaved RNA product abundance [1]: 0.155

ACAGACGAAGGAGCCGCAAAGAAGTTACTAAGGGATGCATAATCCCTCAATATAAATATCTCTCACTTATTTAAA
cleaved RNA product abundance [2]: 0.235

ACAGACGAAGGAGCCGCAAAGAAGTTACTAAGGGATGGATAATCCCTCAATATAAATATCTCTCACTTATTTAAA
cleaved RNA product abundance [2]: 0.208

ACAGACGAAGGAGCCGCAAAGAAGTTACTAAGGGATTAATAATCCCTCAATATAAATATCTCTCACTTATTTAAA
cleaved RNA product abundance [1]: 0.169
cleaved RNA product abundance [2]: 0.299

ACAGACGAAGGAGCCGCAAAGAAGTTACTAAGGGGTGAATAATCCCTCAATATAAATATCTCTCACTTATTTAAA
cleaved RNA product abundance [1]: 0.144

ACAGACGAAGGAGCCGCAAAGAAGTTACTAAGGTATGAATAATCCCTCAATATAAATATCTCTCACTTATTTAAA
cleaved RNA product abundance [1]: 0.103
cleaved RNA product abundance [2]: 0.15
cleaved RNA product abundance [3]: 0.0813

ACAGACGAAGGAGCCGCAAAGAAGTTACTAAGTGATGAATAATCCCTCAATATAAATATCTCTCACTTATTTAAA
cleaved RNA product abundance [1]: 0.0989
cleaved RNA product abundance [2]: 0.102

ACAGACGAAGGAGCCGCAAAGAAGTTACTAATGGATGAATAATCCCTCAATATAAATATCTCTCACTTATTTAAA
cleaved RNA product abundance [1]: 0.112
cleaved RNA product abundance [2]: 0.172

ACAGACGAAGGAGCCGCAAAGAAGTTACTATGGGATGAATAATCCCTCAATATAAATATCTCTCACTTATTTAAA
cleaved RNA product abundance [2]: 0.228

ACAGACGAAGGAGCCGCAAAGAAGTTAGAAAGGGATGAATAATCCCTCAATATAAATATCTCTCACTTATTTAAA
cleaved RNA product abundance [2]: 0.426

ACAGACGAAGGAGCCGCAAAGAAGTTAGTAAGCGATGAATAATCCCTCAATATAAATATCTCTCACTTATTTAAA
cleaved RNA product abundance [2]: 0.0715

ACAGACGAAGGAGCCGCAAAGAAGTTAGTAAGGAATGAATAATCCCTCAATATAAATATCTCTCACTTATTTAAA
cleaved RNA product abundance [1]: 0.0912

ACAGACGAAGGAGCCGCAAAGAAGTTAGTAAGGGAAGAATAATCCCTCAATATAAATATCTCTCACTTATTTAAA
cleaved RNA product abundance [2]: 0.302

ACAGACGAAGGAGCCGCAAAGAAGTTAGTAAGGGAGGAATAATCCCTCAATATAAATATCTCTCACTTATTTAAA
cleaved RNA product abundance [1]: 0.123
cleaved RNA product abundance [2]: 0.199

ACAGACGAAGGAGCCGCAAAGAAGTTAGTAAGGGATCAATAATCCCTCAATATAAATATCTCTCACTTATTTAAA
cleaved RNA product abundance [2]: 0.305

ACAGACGAAGGAGCCGCAAAGAAGTTAGTAAGGGATGAATAAACCCTCAATATAAATATCTCTCACTTATTTAAA
cleaved RNA product abundance [2]: 0.158

ACAGACGAAGGAGCCGCAAAGAAGTTAGTAAGGGATGAATAATACCTCAATATAAATATCTCTCACTTATTTAAA
cleaved RNA product abundance [2]: 0.151

ACAGACGAAGGAGCCGCAAAGAAGTTAGTAAGGGATGAATAATCCATCAATATAAATATCTCTCACTTATTTAAA
cleaved RNA product abundance [1]: 0.251

ACAGACGAAGGAGCCGCAAAGAAGTTAGTAAGGGATGAATAATCCCTCAATATAAATATCTCTCACTTATTTAAA
cleaved RNA product abundance [1]: 0.306
cleaved RNA product abundance [2]: 0.443
cleaved RNA product abundance [3]: 0.559

ACAGACGAAGGAGCCGCAAAGAAGTTAGTAAGGGATGAATAATCCCTCAATATAAATGTCTCTCACTTATTTAAA
cleaved RNA product abundance [1]: 0.187

ACAGACGAAGGAGCCGCAAAGAAGTTAGTAAGGGATGAATAATCCCTTAATATAAATATCTCTCACTTATTTAAA
cleaved RNA product abundance [2]: 0.724

ACAGACGAAGGAGCCGCAAAGAAGTTAGTAAGGGATGAATAATCCGTCAATATAAATATCTCTCACTTATTTAAA
cleaved RNA product abundance [2]: 0.218

ACAGACGAAGGAGCCGCAAAGAAGTTAGTAAGGGATGAATAATCCTTCAATATAAATATCTCTCACTTATTTAAA
cleaved RNA product abundance [1]: 0.29

ACAGACGAAGGAGCCGCAAAGAAGTTAGTAAGGGATTAATAATCCCTCAATATAAATATCTCTCACTTATTTAAA
cleaved RNA product abundance [2]: 0.406

ACAGACGAAGGAGCCGCAAAGAAGTTAGTAAGGTATGAATAATCCCTCAATATAAATATCTCTCACTTATTTAAA
cleaved RNA product abundance [2]: 0.135

ACAGACGAAGGAGCCGCAAAGAAGTTAGTAATGGATGAATAATCCCTCAATATAAATATCTCTCACTTATTTAAA
cleaved RNA product abundance [2]: 0.141

ACAGACGAAGGAGCCGCAAAGAAGTTAGTACGGGATGAATAATCCCTCAATATAAATATCTCTCACTTATTTAAA
cleaved RNA product abundance [1]: 0.269

ACAGACGAAGGAGCCGCAAAGAAGTTATAAAAGGATAAATAATCCCTCAATATAAATATCTCTCACTTATTTAAA
cleaved RNA product abundance [1]: 0.141

ACAGACGAAGGAGCCGCAAAGAAGTTATAAAAGGATGAATAATCCCTCAATATAAATATCTCTCACTTATTTAAA
cleaved RNA product abundance [1]: 0.153
cleaved RNA product abundance [2]: 0.165

ACAGACGAAGGAGCCGCAAAGAAGTTATAAACGGATGAATAATCCCTCAATATAAATATCTCTCACTTATTTAAA
cleaved RNA product abundance [1]: 0.132
cleaved RNA product abundance [2]: 0.181

ACAGACGAAGGAGCCGCAAAGAAGTTATAAAGAGATGAATAATCCCTCAATATAAATATCTCTCACTTATTTAAA
cleaved RNA product abundance [1]: 0.11
cleaved RNA product abundance [2]: 0.137

ACAGACGAAGGAGCCGCAAAGAAGTTATAAAGGAATGAATAATCCCTCAATATAAATATCTCTCACTTATTTAAA
cleaved RNA product abundance [1]: 0.0926
cleaved RNA product abundance [2]: 0.124

ACAGACGAAGGAGCCGCAAAGAAGTTATAAAGGCATGAATAATCCCTCAATATAAATATCTCTCACTTATTTAAA
cleaved RNA product abundance [1]: 0.122
cleaved RNA product abundance [2]: 0.113

ACAGACGAAGGAGCCGCAAAGAAGTTATAAAGGGAAGAATAATCCCTCAATATAAATATCTCTCACTTATTTAAA
cleaved RNA product abundance [1]: 0.174
cleaved RNA product abundance [2]: 0.322

ACAGACGAAGGAGCCGCAAAGAAGTTATAAAGGGACGAATAATCCCTCAATATAAATATCTCTCACTTATTTAAA
cleaved RNA product abundance [2]: 0.326

ACAGACGAAGGAGCCGCAAAGAAGTTATAAAGGGATAAATAATCCCTCAATATAAATATCTCTCACTTATTTAAA
cleaved RNA product abundance [1]: 0.316
cleaved RNA product abundance [2]: 0.358

ACAGACGAAGGAGCCGCAAAGAAGTTATAAAGGGATCAATAATCCCTCAATATAAATATCTCTCACTTATTTAAA
cleaved RNA product abundance [1]: 0.26
cleaved RNA product abundance [2]: 0.434

ACAGACGAAGGAGCCGCAAAGAAGTTATAAAGGGATGAAAAATCCCTCAATATAAATATCTCTCACTTATTTAAA
cleaved RNA product abundance [2]: 0.4

ACAGACGAAGGAGCCGCAAAGAAGTTATAAAGGGATGAACAATCCCTCAATATAAATATCTCTCACTTATTTAAA
cleaved RNA product abundance [1]: 0.261

ACAGACGAAGGAGCCGCAAAGAAGTTATAAAGGGATGAATAAACCCTCAATATAAATATCTCTCACTTATTTAAA
cleaved RNA product abundance [1]: 0.145
cleaved RNA product abundance [2]: 0.197

ACAGACGAAGGAGCCGCAAAGAAGTTATAAAGGGATGAATAACCCCTCAATATAAATATCTCTCACTTATTTAAA
cleaved RNA product abundance [2]: 0.261

ACAGACGAAGGAGCCGCAAAGAAGTTATAAAGGGATGAATAAGCCCTCAATATAAATATCTCTCACTTATTTAAA
cleaved RNA product abundance [2]: 0.172

ACAGACGAAGGAGCCGCAAAGAAGTTATAAAGGGATGAATAATCACTCAATATAAATATCTCTCACTTATTTAAA
cleaved RNA product abundance [1]: 0.107
cleaved RNA product abundance [2]: 0.169

ACAGACGAAGGAGCCGCAAAGAAGTTATAAAGGGATGAATAATCCATCAATATAAATATCTCTCACTTATTTAAA
cleaved RNA product abundance [2]: 0.26

ACAGACGAAGGAGCCGCAAAGAAGTTATAAAGGGATGAATAATCCCACAATATAAATATCTCTCACTTATTTAAA
cleaved RNA product abundance [1]: 0.175
cleaved RNA product abundance [2]: 0.183

ACAGACGAAGGAGCCGCAAAGAAGTTATAAAGGGATGAATAATCCCTAAATATAAATATCTCTCACTTATTTAAA
cleaved RNA product abundance [2]: 0.626

ACAGACGAAGGAGCCGCAAAGAAGTTATAAAGGGATGAATAATCCCTCAAAATAAATATCTCTCACTTATTTAAA
cleaved RNA product abundance [2]: 0.292

ACAGACGAAGGAGCCGCAAAGAAGTTATAAAGGGATGAATAATCCCTCAACATAAATATCTCTCACTTATTTAAA
cleaved RNA product abundance [2]: 0.304

ACAGACGAAGGAGCCGCAAAGAAGTTATAAAGGGATGAATAATCCCTCAATAAAAATATCTCTCACTTATTTAAA
cleaved RNA product abundance [1]: 0.125
cleaved RNA product abundance [2]: 0.0461

ACAGACGAAGGAGCCGCAAAGAAGTTATAAAGGGATGAATAATCCCTCAATATAAAAATCTCTCACTTATTTAAA
cleaved RNA product abundance [1]: 0.338
